Data as given in patent publication US20220204643A1 (published 2022).
Each block holds one binder with its values, some of them ahead of it.

Tests used:
[1] = target: T1, grancalcin, transcript variant 4 (human, UniProt P28676 1-217)
T1 construct: also called GCA
T1 sequence: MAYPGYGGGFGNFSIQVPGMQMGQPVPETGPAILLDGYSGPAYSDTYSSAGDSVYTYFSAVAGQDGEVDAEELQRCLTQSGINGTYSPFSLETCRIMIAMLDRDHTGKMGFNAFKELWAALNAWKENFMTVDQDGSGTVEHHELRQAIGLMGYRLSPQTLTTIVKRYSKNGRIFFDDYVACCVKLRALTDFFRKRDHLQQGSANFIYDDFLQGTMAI

[2] = target: T2, DEAD-box helicase 53 (human, UniProt Q86TM3 1-631)
T2 construct: also called DDX53
T2 sequence (Q86TM3 other isoform, or with tags, fused parts or gaps limits assumed): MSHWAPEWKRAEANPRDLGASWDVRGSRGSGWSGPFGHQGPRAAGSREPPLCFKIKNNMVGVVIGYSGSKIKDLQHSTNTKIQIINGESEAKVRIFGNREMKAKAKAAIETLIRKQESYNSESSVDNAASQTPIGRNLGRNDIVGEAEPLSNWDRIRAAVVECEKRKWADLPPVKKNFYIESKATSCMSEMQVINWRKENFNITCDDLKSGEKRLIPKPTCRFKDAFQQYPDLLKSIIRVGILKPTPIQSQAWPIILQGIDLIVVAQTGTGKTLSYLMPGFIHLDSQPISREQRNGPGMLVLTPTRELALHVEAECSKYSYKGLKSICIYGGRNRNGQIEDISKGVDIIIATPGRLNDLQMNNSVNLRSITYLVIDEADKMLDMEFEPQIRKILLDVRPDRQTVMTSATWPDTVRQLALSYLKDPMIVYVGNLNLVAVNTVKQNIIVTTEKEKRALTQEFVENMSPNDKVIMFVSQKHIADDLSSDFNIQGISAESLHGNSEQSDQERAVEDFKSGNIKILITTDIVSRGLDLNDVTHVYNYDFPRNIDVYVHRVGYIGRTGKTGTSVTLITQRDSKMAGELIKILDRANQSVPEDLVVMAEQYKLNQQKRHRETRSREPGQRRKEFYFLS

[3] = target: T3, Vezatin, adherens junctions transmembrane protein (human, UniProt Q9HBM0 56-779 at identity 0.99), limits assumed)
T3 construct: also called VEZT
T3 chain: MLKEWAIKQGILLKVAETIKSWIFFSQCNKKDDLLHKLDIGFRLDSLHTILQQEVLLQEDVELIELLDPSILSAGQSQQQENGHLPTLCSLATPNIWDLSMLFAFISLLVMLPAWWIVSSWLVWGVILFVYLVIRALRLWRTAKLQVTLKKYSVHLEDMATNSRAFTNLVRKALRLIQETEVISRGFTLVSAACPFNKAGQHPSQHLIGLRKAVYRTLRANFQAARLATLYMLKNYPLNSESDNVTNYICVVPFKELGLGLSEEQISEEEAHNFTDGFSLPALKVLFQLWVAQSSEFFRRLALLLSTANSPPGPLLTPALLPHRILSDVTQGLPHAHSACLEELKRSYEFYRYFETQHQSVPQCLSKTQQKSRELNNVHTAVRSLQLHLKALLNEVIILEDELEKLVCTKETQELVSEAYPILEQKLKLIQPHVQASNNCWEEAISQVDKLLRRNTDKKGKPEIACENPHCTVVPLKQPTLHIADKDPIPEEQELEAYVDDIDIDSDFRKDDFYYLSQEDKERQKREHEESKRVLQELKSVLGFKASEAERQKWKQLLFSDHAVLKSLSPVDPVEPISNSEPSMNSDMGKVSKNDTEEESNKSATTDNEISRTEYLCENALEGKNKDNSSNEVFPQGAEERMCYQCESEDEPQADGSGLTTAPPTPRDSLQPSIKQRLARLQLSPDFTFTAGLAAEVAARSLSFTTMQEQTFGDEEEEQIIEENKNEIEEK

[4] = target: T4, Deoxyhypusine synthase (human, UniProt P49366 1-369)
T4 construct: also called DHPS
T4 sequence: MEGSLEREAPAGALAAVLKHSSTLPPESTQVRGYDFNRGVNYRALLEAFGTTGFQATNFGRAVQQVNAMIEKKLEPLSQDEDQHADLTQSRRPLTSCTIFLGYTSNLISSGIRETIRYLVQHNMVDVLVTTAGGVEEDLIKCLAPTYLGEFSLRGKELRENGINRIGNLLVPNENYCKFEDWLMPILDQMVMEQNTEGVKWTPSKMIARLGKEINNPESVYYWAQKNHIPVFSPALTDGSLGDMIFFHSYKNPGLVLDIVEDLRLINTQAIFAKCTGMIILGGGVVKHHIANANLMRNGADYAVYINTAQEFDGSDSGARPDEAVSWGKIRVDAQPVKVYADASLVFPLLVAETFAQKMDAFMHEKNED

[5] = target: T5, sorting nexin 1, transcript variant 1 (human, UniProt Q13596 1-522)
T5 construct: also called SNX1
T5 sequence (Q13596 whole entry, change not shown): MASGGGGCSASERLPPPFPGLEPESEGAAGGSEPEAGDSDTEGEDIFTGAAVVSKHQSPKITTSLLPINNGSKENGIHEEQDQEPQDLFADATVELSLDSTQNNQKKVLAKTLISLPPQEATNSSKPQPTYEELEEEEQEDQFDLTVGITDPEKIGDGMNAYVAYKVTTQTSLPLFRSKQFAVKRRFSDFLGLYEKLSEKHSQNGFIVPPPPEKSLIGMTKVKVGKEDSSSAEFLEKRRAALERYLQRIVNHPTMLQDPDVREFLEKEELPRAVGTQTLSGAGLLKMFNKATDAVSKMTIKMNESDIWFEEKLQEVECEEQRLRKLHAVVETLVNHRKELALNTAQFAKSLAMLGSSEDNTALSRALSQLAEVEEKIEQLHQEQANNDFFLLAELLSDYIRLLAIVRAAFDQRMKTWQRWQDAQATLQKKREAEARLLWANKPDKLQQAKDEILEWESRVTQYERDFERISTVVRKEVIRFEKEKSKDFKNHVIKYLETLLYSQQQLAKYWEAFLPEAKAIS

[6] = target: T6, Rna polymerase iii subunit g (human, UniProt O15318 1-223)
T6 construct: also called POLR3G
T6 sequence: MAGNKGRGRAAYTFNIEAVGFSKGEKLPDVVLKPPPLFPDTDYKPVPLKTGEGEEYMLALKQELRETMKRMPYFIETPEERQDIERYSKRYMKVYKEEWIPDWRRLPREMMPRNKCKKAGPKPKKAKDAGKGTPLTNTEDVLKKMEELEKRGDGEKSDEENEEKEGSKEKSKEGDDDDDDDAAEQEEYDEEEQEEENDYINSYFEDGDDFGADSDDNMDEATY

[7] = target: T7, HEAT repeat containing 3, transcript variant 1 (human, UniProt Q7Z4Q2 1-680)
T7 construct: also called HEATR3
T7 sequence: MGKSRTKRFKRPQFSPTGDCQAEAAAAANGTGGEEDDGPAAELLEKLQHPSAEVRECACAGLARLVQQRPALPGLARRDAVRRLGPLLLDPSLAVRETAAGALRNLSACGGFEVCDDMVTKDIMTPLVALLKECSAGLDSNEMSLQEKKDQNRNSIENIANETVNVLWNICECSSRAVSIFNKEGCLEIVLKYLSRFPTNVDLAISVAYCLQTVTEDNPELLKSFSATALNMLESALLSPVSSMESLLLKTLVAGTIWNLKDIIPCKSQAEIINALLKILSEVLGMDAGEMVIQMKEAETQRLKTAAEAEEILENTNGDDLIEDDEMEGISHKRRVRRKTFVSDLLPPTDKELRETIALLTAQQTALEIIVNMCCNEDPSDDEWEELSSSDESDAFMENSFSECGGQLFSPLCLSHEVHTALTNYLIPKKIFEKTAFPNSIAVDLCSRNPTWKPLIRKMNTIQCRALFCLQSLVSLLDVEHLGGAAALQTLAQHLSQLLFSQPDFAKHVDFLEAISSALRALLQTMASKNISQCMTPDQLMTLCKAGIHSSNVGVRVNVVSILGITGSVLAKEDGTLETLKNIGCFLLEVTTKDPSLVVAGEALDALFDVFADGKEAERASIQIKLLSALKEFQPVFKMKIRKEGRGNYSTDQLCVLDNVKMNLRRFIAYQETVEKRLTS

[8] = target: T8, nudix hydrolase 22, transcript variant 2 (human, UniProt Q9BRQ3 1-303)
T8 construct: also called NUDT22
T8 chain: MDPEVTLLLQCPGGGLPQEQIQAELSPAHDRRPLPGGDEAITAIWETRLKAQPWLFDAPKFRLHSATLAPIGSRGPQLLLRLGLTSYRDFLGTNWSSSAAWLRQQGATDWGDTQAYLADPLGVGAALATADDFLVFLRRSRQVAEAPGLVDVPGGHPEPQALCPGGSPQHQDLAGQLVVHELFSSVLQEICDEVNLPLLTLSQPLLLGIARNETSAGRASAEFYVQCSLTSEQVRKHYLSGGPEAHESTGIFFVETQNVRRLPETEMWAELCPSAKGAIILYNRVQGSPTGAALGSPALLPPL

[9] = target: CRK like proto-oncogene, adaptor protein, transcript variant 1 (human, UniProt P46109 1-303)
Chain of CRK like proto-oncogene, adaptor protein, transcript variant 1 (P46109 whole entry, change not shown): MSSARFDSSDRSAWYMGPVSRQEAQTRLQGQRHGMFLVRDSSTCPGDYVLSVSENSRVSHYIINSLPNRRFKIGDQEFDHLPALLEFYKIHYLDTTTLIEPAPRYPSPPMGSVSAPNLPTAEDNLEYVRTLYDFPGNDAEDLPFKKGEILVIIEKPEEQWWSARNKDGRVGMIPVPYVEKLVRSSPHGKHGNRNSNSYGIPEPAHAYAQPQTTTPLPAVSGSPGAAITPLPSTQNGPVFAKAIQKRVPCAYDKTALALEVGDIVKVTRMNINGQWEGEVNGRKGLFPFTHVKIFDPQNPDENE

[10] = target: T9, endosome associated trafficking regulator 1, transcript variant 2 (human, UniProt Q96C92 59-435); experiment: protein array
T9 construct: on protein array; also called SDCCAG3
T9 chain: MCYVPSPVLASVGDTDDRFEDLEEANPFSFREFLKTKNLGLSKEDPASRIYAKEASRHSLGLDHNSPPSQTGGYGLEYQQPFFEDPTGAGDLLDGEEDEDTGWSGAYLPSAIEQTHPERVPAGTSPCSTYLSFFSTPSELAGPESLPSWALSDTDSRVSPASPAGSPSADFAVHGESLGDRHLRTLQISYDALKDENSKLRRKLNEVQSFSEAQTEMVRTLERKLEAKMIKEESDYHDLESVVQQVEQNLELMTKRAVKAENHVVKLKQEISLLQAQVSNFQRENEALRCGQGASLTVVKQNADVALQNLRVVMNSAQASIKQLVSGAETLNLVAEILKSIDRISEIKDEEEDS

[11] = target: T10, charged multivesicular body protein 4B (human, UniProt Q9H444 2-224); experiment: protein array
T10 construct: on protein array; also called CHMP4B
T10 sequence: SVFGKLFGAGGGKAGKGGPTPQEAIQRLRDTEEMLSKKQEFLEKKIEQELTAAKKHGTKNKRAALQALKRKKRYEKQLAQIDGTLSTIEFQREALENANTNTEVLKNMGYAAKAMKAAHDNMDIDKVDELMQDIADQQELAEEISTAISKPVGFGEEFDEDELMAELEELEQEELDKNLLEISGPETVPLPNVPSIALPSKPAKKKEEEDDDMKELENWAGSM

binding result [1]: binds
B1: TPAN1001 (antibody, V domains shown)
VH: QVQLVQSGAEVKKPGSSVKVSCKASRGTFSNHAVSWVRQAPGQGLEWVGGIIPVFGPPNYAQKFRGRVTITADRSTNTAYMELNSLRSEDTAVYYCARTQWGTDVEATNPYYYFMDVWGKGTTVTVSS
VL: EIVLTQSPGTLSLSPGHRATLSCRASQDVASTYLAWYQQKPGQAPRLLIYGASSRATGIPDRFSGSGSGTDFTLTISRLEPEDFAVFYCQYYGGSPGFTFGPGTKVDFKR

binding result [2]: binds
binding result [3]: binds
B2: TOVA1005 (antibody, V domains shown)
VH: QITLKESGPTLVKPTQTLTLTCTFSGFSLSTNGVGVGWIRQPPGKALEWLALINWDDDKRYSPSLKSRLTITKDTSKNQVVLTMTNLDPVDTATYYCVHARDDYGDSAWSTGPVWGQGTLVTVSS
VL: DFLLTQPHSVSESPGKTVTISCTRSSGSIASNYVQWYQQRPGSSPSTVIYEDHQRPSGVPGRFSGSIDSSSNSASLTISGLKTEDEADYFCQSSDSNNHVVFGGGTKLTVLG

binding result [4]: binds
B3: TOVA1003 (antibody)
VH: GEQLLESGGGLVQPGGSLRLSCAASGFTFSHYAMTWVRQAPGKGLEWVSGVSGSGFTTYYADSVKGRFTISRDNAQNTLYLHMNSLRAEDTAIYYCVKDLEVSIGHNFDFWGQGTLVTVSSASTKGPSVFPLAPSSKSTSGGTAALGCLVKDYFPEPVTVSWNSGALTSGVHTFPAVLQSSGLYSLSSVVTVPSSSLGTQTYICNVNHKPSNTKVDKRV
VL: EVQMTQSPSSLSASVGDRVTITCRASQHIAGRLNWYQQKPGKAPKLLIHSASSVQREVPSRFGGSGFGTDFTLTIYSLQAEDFATYFCQQSYYTPPTFAGGTRVDLKRTVAAPSVFIFPPSDEQLKSGTASVVCLLNNFYPREAKVQWKVDNALQSGNSQESVTEQDSKDSTYSLSSTLTLSKADYEKHKVYACEVTHQGLSSPVTKSFNRGEC

binding result [5]: binds
B4: TPAN1004 (antibody, V domains shown)
VH: QIQLVQSGAEVKKPGASVKVSCKTSGYTFTHYGVAWVRQAPGQGPEWMGWISPYNGNIEYGQKFQGRVTMTTDTSTNTAYMELRSLRYDDTAVYYCARDLDEINSSWLDPWGQGTLIIVSP
VL: EIVLTQSPATLSLSPGERATLSCRASQSVSSNYLAWYQQKPGQAPRLLIHGASSRATGFPDRFSGSGSGTDFTLTINRLEPEDFAVYYCQQYGTSPQTFGQGTKVEIKR

binding result [6]: binds
B5: TPAN1003 (antibody, V domains shown)
VH: QVQLVQSGAEVKKPGASVKISCQAFGYNFIDNAIHWVRQAPGQRPEWMGWINAGNGNTRYSQNFQGRVTITKVTSASTAYMEMSRLKSEDTAVYFCARSSKWTDWHFDYWGQGTLVTVSS
VL: EIVLTQSPGTLSLSPGETATLSCRASQSVANNYLAWHQQKPGQAPRLLIYGASKRAAGIPDRFSGSGSGTEFTLTISRLEPEDCAVYYCQEYVKSPGFAFGPGTRVDIKR

binding result [7]: binds
B6: TOVA1004 (antibody, V domains shown)
VH: EVQLVESGGGLVKPGGSLRLSCAASGFTFSSYSMNWVRQAPGKGLEWVSSISSSSSYIYYADSVKGRFTISRDNAKNSLYLQMNSLRAEDTAVYYCARDRGVVVVAATPYYYGMDVWGQGTTVTVSS
VL: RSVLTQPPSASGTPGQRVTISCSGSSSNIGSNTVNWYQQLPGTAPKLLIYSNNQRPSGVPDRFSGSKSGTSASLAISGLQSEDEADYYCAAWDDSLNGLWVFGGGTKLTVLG

binding result [8]: binds
B7: TOVA1007 (antibody, V domains shown)
VH: PVQLQESGPGLVNPSQTLSLTCTVSGGSISSGGYCWSWVRQHPGKGLEWIGCIYYIGTTYYMRSLKSRLIISIDTSKNQFSLKLTSVTAADSAVYYCARGGELLGGFGYSGMDVWGQGTTVTVSS
VL: not shown

binding result [9]: binds
B8: TPAN1006 (antibody, V domains shown)
VH: QVQLVQSGAEVKKPGASVKLSCKPSGYTFSSYYIHWLRQAPGQGLEWMGIINPSGGYTSSAQKFQGRVTMTRDTSTSTIYMELSSLRAEDTAVYYCARRGEVGTMVRVFRKPFDYWGQGTLVTVSS
VL: QSVLTQPPSVSGAPGQRVTISCTGSSSNIGAQYDVHWYKVIPGTAPKLLIYGNDNRPSGVPDRFSGSKSGTSASLAITGLQSEDEADYYCQSNDISLSGSVVFGGGTKLTVLG

binding result [10]: binds
binding result [11]: binds
B9: TBRE1034 (antibody, V domains shown)
VH: QVQLVESGGGLVEPGGSLRLSCAASGFTFSDYYMSWIRQAPGKRLEWISHMSSGGNRRHYADSVRGRFTISRDNAKNSLYLQMNSMRADDTAVYYCARDKRSGMTSDRRIDYWGQGTRVTVSS
VL: DIQMTQSPSSLSASVGDRITITCRASQSVGTYLSWFQQKPGKAPKLLIYAASSLQSGVPSRFSGSGSGTDFTLTISSLQPEDFATYFCQQSYSVPPWTFGQGTKVEIKR
notes: VH/VL only
